Test results: publication PMC5371411

Biological target: His-EspC (enteropathogenic Escherichia coli (EPEC)) (UniProt Q9EZE7)
Assay: SPR; His-EspC coupled by its His tag and EDC-NHS on a nickel-nitrilotriacetic acid sensor slide; His-EspA or His-EspA/His-EspD perfused in PBST at 50 µl/min; Reichert SR7500DC

## His-EspA/His-EspD complex (from UniProt Q47184 1-192)
  Kd: 24.8 nM
